Drawing on the supplement of paper PMC12042874, this text covers amyloid nucleation score for 54 substances.

± gives the uncertainty stated by the source.

The nature of the data set: amyloid nucleation score (Sup35N fusion, yeast selection) (log enrichment); library NNK3; higher = more nucleation; inactive = no reads after selection. The essentials: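 On medium lacking adenine and uracil, psi-negative yeast expressing peptides of 20 random codons fused to Sup35N were grown 7 days at 30°C after a 24-hour induction with 100 μM copper sulfate. Illumina sequencing of input and output plasmid inserts gave the reads, and sequences under 100 input reads were excluded. The nucleation score is the DiMSum log enrichment of output over input reads, centred on the mode score of non-aggregating sequences.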
On to TLNSDVSGSNIWASSYG, for which the amyloid nucleation score entry is “inactive”.
Take TLNVFVNN: the amyloid nucleation score stood at 2.26 ± 0.056.
As for TLSLPLMTRWSLYLCSDWAS, the amyloid nucleation score result is “inactive”.
With TLWLRVLSFWTVCFLVHFTM the entry was “inactive”; with TLWMQILDAKYRSCSLRLRR, “inactive”; with TMFIVNTNIWSGVCISDNTW, 1.78 ± 0.067.
Next, TMHQLHKFFLHMKGASIDSV: “inactive”.
For the substance TMKGTSKVSLLVSSGASRMG, the amyloid nucleation score entry was “inactive”.
Turning to TMLYGSIRQSGDMQMSTLSV, the amyloid nucleation score result was “inactive”.
Turning to TMRNKMAY, the amyloid nucleation score result is “inactive”.
For TMVLIICDN, the amyloid nucleation score result was “inactive”.
With TMVQECHYARSVSLYYNANA, the amyloid nucleation score entry is “inactive”.
Consider TMWTTGTTPPRMISHT, for which the amyloid nucleation score entry was “inactive”.
Turning to TNAFRLVLTNMKI, the amyloid nucleation score entry was “inactive”.
As to TNCGNQTILFIIYVTILEVC, the amyloid nucleation score worked out at 0.397 ± 0.14.
As to TNFPLALSSRIPSASQISMQ, the amyloid nucleation score was -0.547 ± 1.5.
With TNFSRYEDFVLLFCPILYAF the entry was “inactive”; with TNLMLSLE, “inactive”.
Consider TNNCCNLLCMIQNPESCSFA, for which the amyloid nucleation score came out at 3.12 ± 0.065.
As to TNVRALA, the amyloid nucleation score entry is “inactive”.
Regarding TNWDKNYYSCYIIKGLRWER, the amyloid nucleation score entry is “inactive”.
Next, TPAMYFPIYFSAHGHLYLFY: “inactive”; TPCAKTIELHWCVVERRSSY: “inactive”.
Next, TPIHRL: 0.451 ± 0.16.
On to TPLSHNVRIMKKLGCDRRD, for which the amyloid nucleation score entry was “inactive”.
TPPVWTSPSSRLASCFKGLW gave an amyloid nucleation score of 1.31 ± 0.15.
With TQLIIAGFVPNYVVLPWSAH, the amyloid nucleation score turned out to be 1.38 ± 0.11.
Turning to TQLRTVCSTW, the amyloid nucleation score result was “inactive”.
With TQSWLCRV, the amyloid nucleation score entry was “inactive”.
Next, TRAMHSFWFESDCKY: “inactive”.
TRDQHIIYYFVEPFKIITGM gave an amyloid nucleation score of 1.5 ± 0.099.
In the case of TRDRCLRFKLVPVYFVWTCG, the amyloid nucleation score entry was “inactive”.
For TRGSPRGRNEKSGYTSVMRG, the amyloid nucleation score result is “inactive”.
In the case of TRHSHLCS, the amyloid nucleation score entry is “inactive”.
As for TRLFRDNFHFLGRSLSATYV, the amyloid nucleation score entry was “inactive”.
As to TRMGFYKAWYTAYVWRHALL, the amyloid nucleation score result was “inactive”.
As to TRNMRWNFVDLARNRASLNS, the amyloid nucleation score entry was “inactive”.
Regarding TRPESETHGMMR, the amyloid nucleation score entry was “inactive”.
TRPLSDPVLINVYWRETSYP: the amyloid nucleation score is -0.33 ± 0.47.
Next, TRRQTGYILSTLWLAHCHFR: “inactive”; TRSCNLNTFKVDASGPPWHG: “inactive”.
For the substance TRSFVRSGAWNSLEGW, the amyloid nucleation score was determined as 1.16 ± 0.16.
On to TRTCRIWIKSVMGRRWVIRM, for which the amyloid nucleation score entry was “inactive”.
Next, TSEVVQ: “inactive”.
Next, TSHNGPYLSMFFRVANT: “inactive”; TSIIYMFNSFL: 2.9 ± 0.06; TSKFPSDLWSNPPEMYALFI: “inactive”.
For the substance TSKRDYDRCRFL, the amyloid nucleation score result was “inactive”.
Regarding TSLDCYLMRLFLGWEALKVW, the amyloid nucleation score entry is “inactive”.
With TSSFVKSFRCYSAIG, the amyloid nucleation score result is “inactive”.
For the substance TSTDVQVGYVNMLLLRVLFF, the amyloid nucleation score result was “inactive”.
On to TSVRELNLMPCDENSTICDI, for which the amyloid nucleation score result is “inactive”.
In the case of TSVSPRHLVSTSTMICSFAH, the amyloid nucleation score result was “inactive”.
As for TSWCNSKPCEILYVGSMAKE, the amyloid nucleation score result is “inactive”.
